± gives the uncertainty stated by the source.
Test: protein stability index of a GFP-peptide fusion (yeast GPS) (PSI 1-4); higher = more stable; sorted into four equal gates, so the index is relative within each strain
Summary of the method: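 Tiled 17-residue yeast protein peptides were fused downstream of GFP in a plasmid that also expresses Cherry, and the pooled library was carried in yeast. Mid-log cultures in leucine-free medium were sorted into four equal gates by GFP/Cherry fluorescence ratio, and plasmids from each gate were PCR-amplified and Illumina-sequenced, with reads assigned to strains by barcodes. The protein stability index for each peptide was each gate's read frequency times its gate number, summed.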

Sequence | protein stability index (doa10∆) | protein stability index (pdr5∆) | protein stability index (san1∆) | protein stability index (ubr1∆)
YIQERLKSLNDIETQLC [MED11] | 2.83 ± 0.083 | 2.68 ± 0.091 | 2.77 ± 0.1 | 2.8 ± 0.07
YISKAQNDQWSIQMEFM [SSN2] | 2.79 ± 0.064 | 2.73 ± 0.071 | 2.71 ± 0.059 | 3.04 ± 0.053
YITNADDSTKFQLVNDV [SIR3] | 3.01 ± 0.11 | 3.18 ± 0.1 | 2.94 ± 0.092 | 3.24 ± 0.071
YIWRYLPAPPVCIRPSV [RPO31] | 1.48 ± 0.14 | 1.27 ± 0.1 |  | 1.2 ± 0.23
YKENEAMLRENIEVILS [SNF12] | 2.42 ± 0.053 | 2.73 ± 0.071 | 2.84 ± 0.046 | 2.53 ± 0.057
YKKLDIDGKVIQAGKFD [SNF2] | 2.94 ± 0.088 | 3.36 ± 0.08 | 3.06 ± 0.044 | 2.99 ± 0.059
YKLSTVVLRLYLKDNIT [GRR1] | 1.64 ± 0.06 | 1.53 ± 0.051 | 1.36 ± 0.081 | 1.68 ± 0.068
YKNEDVTALLEQGFKVV [YCS4] | 2.8 ± 0.1 | 3.08 ± 0.1 | 2.93 ± 0.097 | 2.74 ± 0.091
YKPGSITLENITRLCQT [MED1] | 2.14 ± 0.044 | 2.23 ± 0.041 | 1.79 ± 0.046 | 1.99 ± 0.032
YKVLKNNGLPECQVIAA [YCG1] | 1.42 ± 0.09 | 2.1 ± 0.14 | 1.35 ± 0.16 | 1.95 ± 0.062
YKVLKQTHPDTGISQKS [HTB1] | 2.42 ± 0.077 | 2.51 ± 0.074 | 2.21 ± 0.081 | 1.68 ± 0.04
YKYGYDMPCDVLAKRMA [SCL1] | 2.51 ± 0.067 | 2.25 ± 0.049 | 2.61 ± 0.073 | 2.29 ± 0.058
YLEELERKKQSDVLRFL [RPL15B] | 1.34 ± 0.16 | 2.23 ± 0.22 | 1.44 ± 0.25 | 1.54 ± 0.1
YLHIRDKILQLNDRFQT [PGD1] | 2.62 ± 0.056 | 2.02 ± 0.064 | 2.38 ± 0.053 | 2.27 ± 0.038
YLIDHIKVEGAVGNLGN [RPL22A] | 2.9 ± 0.17 | 3.11 ± 0.16 | 2.89 ± 0.092 | 3.21 ± 0.11
YLKAFDKNKLLLLAAQI [SSN2] | 1.32 ± 0.061 | 1.37 ± 0.052 | 1.36 ± 0.085 | 1.42 ± 0.045
YLKFIPLKRAIWLIKCC [SRB8] | 2.51 ± 0.095 | 1.86 ± 0.069 | 2.19 ± 0.16 | 2.16 ± 0.057
YLKHVSRRFKNGFQTGS [RPL37A] | 2.06 ± 0.085 | 3.23 ± 0.062 | 3.16 ± 0.084 | 3.46 ± 0.056
YLKNVLFAFNGVARNFH [SIN4] | 2.55 ± 0.082 | 2 ± 0.056 | 1.79 ± 0.064 | 2.15 ± 0.063
YLLISKENKKRKNFKMG [IRR1] | 2.91 ± 0.097 | 3.24 ± 0.14 | 3.02 ± 0.06 | 3.11 ± 0.078
YLLPDDFHFSTDRITRL [BRN1] | 2.43 ± 0.056 | 2.5 ± 0.056 | 2.6 ± 0.063 | 2.79 ± 0.048
YLNLLQEDELDEGTALS [RPB10] | 3.38 ± 0.11 | 3.3 ± 0.13 | 3.4 ± 0.11 | 3.18 ± 0.16
YLSDLKQFFQMTPLLVN [PCI8] | 1.69 ± 0.043 | 1.74 ± 0.044 | 1.51 ± 0.066 | 1.51 ± 0.026
YNRRQDKKNKRLKFGHR [SNF2] | 3.01 ± 0.092 | 3.14 ± 0.09 | 3.22 ± 0.093 | 3.09 ± 0.095
YNSFPHSNLEKISNSKL [SIR4] | 2.77 ± 0.066 | 2.65 ± 0.076 | 2.61 ± 0.043 | 2.76 ± 0.048
YNVKNIIQGRKNFDMLN [PCI8] | 2.51 ± 0.035 | 2.52 ± 0.037 | 2.72 ± 0.039 | 2.58 ± 0.028
YNYCVNKSRSSGHFSTD [CDC53] | 2.8 ± 0.056 | 2.54 ± 0.046 | 2.23 ± 0.049 | 2.54 ± 0.036
YPEYDQITKFPKYRDNL [SSN3] | 2.21 ± 0.18 | 2.4 ± 0.13 | 2.24 ± 0.12 | 2.25 ± 0.047

Sequence | protein stability index (doa10∆) | protein stability index (pdr5∆) | protein stability index (san1∆) | protein stability index (ubr1∆)
YPKLTLDFQTNKRLCDE [RPS17A] | 3.11 ± 0.073 | 3.06 ± 0.064 | 3.06 ± 0.044 | 3.23 ± 0.059
YPPMPFDGFLFGSRVMI [FAS1] | 2.64 ± 0.075 | 2.75 ± 0.071 | 2.53 ± 0.11 | 2.54 ± 0.048
YPVLRKLYKKIAKFERS [YIL149C/MLP2] | 2.42 ± 0.079 | 1.99 ± 0.06 | 2.56 ± 0.071 | 2.88 ± 0.039
YPVVEVERGRVGACTDE [RRP43] | 3.24 ± 0.1 | 2.8 ± 0.25 | 3.16 ± 0.23 | 3.03 ± 0.091
YQELIKNGALVSNILSA [YJL039C/NUP192] | 1.76 ± 0.072 | 2.2 ± 0.057 | 1.82 ± 0.075 | 2.09 ± 0.062
YQNMAFITAKDKYKLYP [YJR042W/NUP85] | 2.9 ± 0.063 | 3.06 ± 0.11 | 3.16 ± 0.076 | 2.88 ± 0.077
YQTCKNSEYLKRRVTNL [SMC2] | 2.37 ± 0.071 | 2.09 ± 0.079 | 2.44 ± 0.078 | 2.45 ± 0.073
YRAFGSIWQVKDQLPDL [MED7] | 3.08 ± 0.13 | 3.17 ± 0.086 | 2.94 ± 0.09 | 3.29 ± 0.083
YRMKGGRVTFIPLNRLS [SMC3] | 1.46 ± 0.14 | 1.15 ± 0.099 | 1.07 ± 0.24 | 1.36 ± 0.13
YSILGDRFKYRSVDRAG [POP4] |  | 2.93 ± 0.23 | 3.45 ± 0.13 | 
YSLLLASKGIDRLSLQD [ECM29] | 2.45 ± 0.2 | 3.23 ± 0.16 |  | 2.83 ± 0.11
YSPKQDEQKHNENENSR [RPO21] | 2.69 ± 0.059 | 2.54 ± 0.064 | 2.63 ± 0.07 | 2.67 ± 0.056
YSSIPSLQDSIIKQENF [SSN2] | 2.7 ± 0.13 | 2.99 ± 0.17 | 2.5 ± 0.086 | 2.79 ± 0.14
YSSRVDSVTTETGKLLS [BRN1] | 2.38 ± 0.13 | 2.46 ± 0.14 | 2.34 ± 0.21 | 2.11 ± 0.18
YSSWSAQTIGRNSKTVR [PRE6] | 2.62 ± 0.14 | 2.9 ± 0.14 | 2.91 ± 0.12 | 2.85 ± 0.098
YSTANEYIIAAIRKAPH [RPN3] | 2.82 ± 0.061 | 2.64 ± 0.052 | 2.62 ± 0.042 | 2.62 ± 0.047
YTDFENTFQKTVEPVYQ [FAS1] | 2.15 ± 0.099 | 2.44 ± 0.1 | 2.03 ± 0.15 | 2.73 ± 0.084
YTMSNHGMSVDPRHIQL [RPO31] | 2.85 ± 0.066 | 2.91 ± 0.083 | 2.94 ± 0.053 | 3.01 ± 0.044
YTQYTNDYLEKHSVTEY [CDC53] | 2.55 ± 0.1 | 2.45 ± 0.075 | 2.81 ± 0.071 | 3.13 ± 0.092
YVERFETQLKVVTRSKE [SMC1] | 1.12 ± 0.066 | 2.29 ± 0.091 | 1.26 ± 0.2 | 2.11 ± 0.051
YVKSLHKQISAEDLTIA [SIN4] | 2.82 ± 0.14 | 3.19 ± 0.11 | 2.8 ± 0.2 | 2.77 ± 0.085
YVRTEETDGKHGKRRSQ [YMR129W/POM152] | 1.46 ± 0.041 | 1.85 ± 0.063 | 1.57 ± 0.11 | 2 ± 0.053
YWFPLAHFLSLSFTPTT [RPN2] | 1.65 ± 0.036 | 1.34 ± 0.033 | 1.19 ± 0.076 | 1.19 ± 0.028
YWYWWKNGNEYNEFLYS [QCR8] | 2.62 ± 0.066 | 2.21 ± 0.049 | 2.49 ± 0.06 | 2.56 ± 0.047
YYAHSIPSSKIDDFTTR [SNU114] | 2.96 ± 0.07 | 3.15 ± 0.078 | 3.08 ± 0.067 | 3.32 ± 0.077
YYKKFLIEPLPTESYLQ [BRR2] | 1.85 ± 0.055 | 2.58 ± 0.066 | 1.78 ± 0.13 | 2.48 ± 0.055
YYLGQYYGCLENDHERG [CSN12] | 2.68 ± 0.098 | 2.85 ± 0.093 | 2.84 ± 0.06 | 3.06 ± 0.052

— the supplement of paper PMC9732359
